Assay [1] has as its target T1, Mouse Robo2 (mouse, UniProt Q7TPD3 22-863, limits assumed).
T1 construct: also called mRobo2
T1 sequence: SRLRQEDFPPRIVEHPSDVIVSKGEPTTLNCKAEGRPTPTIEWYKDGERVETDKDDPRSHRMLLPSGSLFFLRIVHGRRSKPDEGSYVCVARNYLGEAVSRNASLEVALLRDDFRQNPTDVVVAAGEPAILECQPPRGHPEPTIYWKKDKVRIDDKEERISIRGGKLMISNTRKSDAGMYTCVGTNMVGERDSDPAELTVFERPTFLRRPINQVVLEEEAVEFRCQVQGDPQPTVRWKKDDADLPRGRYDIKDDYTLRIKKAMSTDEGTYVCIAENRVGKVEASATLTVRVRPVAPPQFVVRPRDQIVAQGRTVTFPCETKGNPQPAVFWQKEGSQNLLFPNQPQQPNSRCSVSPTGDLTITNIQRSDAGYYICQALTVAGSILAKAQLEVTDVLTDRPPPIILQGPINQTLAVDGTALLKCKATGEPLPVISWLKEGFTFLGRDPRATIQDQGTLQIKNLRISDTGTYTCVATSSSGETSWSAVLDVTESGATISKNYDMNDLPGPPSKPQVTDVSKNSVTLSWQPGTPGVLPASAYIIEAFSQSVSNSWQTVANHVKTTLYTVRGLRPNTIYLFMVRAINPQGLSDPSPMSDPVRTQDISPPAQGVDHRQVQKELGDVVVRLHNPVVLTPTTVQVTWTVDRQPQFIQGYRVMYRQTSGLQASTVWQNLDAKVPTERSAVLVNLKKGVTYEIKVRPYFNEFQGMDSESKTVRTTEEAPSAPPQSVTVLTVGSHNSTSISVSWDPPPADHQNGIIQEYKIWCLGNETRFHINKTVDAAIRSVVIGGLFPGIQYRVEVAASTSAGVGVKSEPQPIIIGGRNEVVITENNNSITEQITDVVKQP
Kind of assay: BLI (Octet RED96); test article captured on biosensor (method names CDAB5 on anti-human Fc, result names CDAB6), mouse Robo2 titrated from 50 nM. How it is done: (§1) Anti-human Fc (for CDAB1, CDAB5, Fc-rat COL4A3) or anti-Streptavidin (for CDAB3) or HIS1K (COL4A3-His) biosensors were equilibrated in assay buffer (1% BSA in 1×PBS with 0.05% Tween-20) for 10 minutes before the experiment was setup. Immobilizing reagents were diluted to 4 μg/mL in assay buffer and 200 μL pipetted to 96 well plate. Mouse Robo2 or TAs were titrated down, two-fold dilutions (starting at 50 nM as the highest concentration, 7-point dilution). The experiment was conducted using data acquisition software version 10.0 for OCTET96 RED. Test articles were captured using anti-human Fc biosensors for 180 s. Biosensors loaded with test articles were then equilibrated in assay buffer for 120 s. Association was performed in wells with mRobo2 or TA for 180 seconds. Dissociation was performed in wells with assay buffer for 180 s.

Assay [2] concerns the target T1, Mouse Robo2. Kind of assay: BLI (Octet RED96); CDAB3 on anti-Streptavidin biosensor, mouse Robo2 titrated two-fold from 50 nM. The method, then:
as §1
(In general: In BLI a coated tip is dipped into the sample, and binding shifts an interference pattern.)

Assay [3] concerns the target T1, Mouse Robo2. Kind of assay: BLI (Octet RED96); CDAB1 captured on anti-human Fc biosensor, mouse Robo2 titrated two-fold from 50 nM. The method, then:
as §1

The target of assay [4] is recROBO2. Put plainly: cell-based or functional assay.
Chain of recROBO2 (Q9HCK4 whole entry): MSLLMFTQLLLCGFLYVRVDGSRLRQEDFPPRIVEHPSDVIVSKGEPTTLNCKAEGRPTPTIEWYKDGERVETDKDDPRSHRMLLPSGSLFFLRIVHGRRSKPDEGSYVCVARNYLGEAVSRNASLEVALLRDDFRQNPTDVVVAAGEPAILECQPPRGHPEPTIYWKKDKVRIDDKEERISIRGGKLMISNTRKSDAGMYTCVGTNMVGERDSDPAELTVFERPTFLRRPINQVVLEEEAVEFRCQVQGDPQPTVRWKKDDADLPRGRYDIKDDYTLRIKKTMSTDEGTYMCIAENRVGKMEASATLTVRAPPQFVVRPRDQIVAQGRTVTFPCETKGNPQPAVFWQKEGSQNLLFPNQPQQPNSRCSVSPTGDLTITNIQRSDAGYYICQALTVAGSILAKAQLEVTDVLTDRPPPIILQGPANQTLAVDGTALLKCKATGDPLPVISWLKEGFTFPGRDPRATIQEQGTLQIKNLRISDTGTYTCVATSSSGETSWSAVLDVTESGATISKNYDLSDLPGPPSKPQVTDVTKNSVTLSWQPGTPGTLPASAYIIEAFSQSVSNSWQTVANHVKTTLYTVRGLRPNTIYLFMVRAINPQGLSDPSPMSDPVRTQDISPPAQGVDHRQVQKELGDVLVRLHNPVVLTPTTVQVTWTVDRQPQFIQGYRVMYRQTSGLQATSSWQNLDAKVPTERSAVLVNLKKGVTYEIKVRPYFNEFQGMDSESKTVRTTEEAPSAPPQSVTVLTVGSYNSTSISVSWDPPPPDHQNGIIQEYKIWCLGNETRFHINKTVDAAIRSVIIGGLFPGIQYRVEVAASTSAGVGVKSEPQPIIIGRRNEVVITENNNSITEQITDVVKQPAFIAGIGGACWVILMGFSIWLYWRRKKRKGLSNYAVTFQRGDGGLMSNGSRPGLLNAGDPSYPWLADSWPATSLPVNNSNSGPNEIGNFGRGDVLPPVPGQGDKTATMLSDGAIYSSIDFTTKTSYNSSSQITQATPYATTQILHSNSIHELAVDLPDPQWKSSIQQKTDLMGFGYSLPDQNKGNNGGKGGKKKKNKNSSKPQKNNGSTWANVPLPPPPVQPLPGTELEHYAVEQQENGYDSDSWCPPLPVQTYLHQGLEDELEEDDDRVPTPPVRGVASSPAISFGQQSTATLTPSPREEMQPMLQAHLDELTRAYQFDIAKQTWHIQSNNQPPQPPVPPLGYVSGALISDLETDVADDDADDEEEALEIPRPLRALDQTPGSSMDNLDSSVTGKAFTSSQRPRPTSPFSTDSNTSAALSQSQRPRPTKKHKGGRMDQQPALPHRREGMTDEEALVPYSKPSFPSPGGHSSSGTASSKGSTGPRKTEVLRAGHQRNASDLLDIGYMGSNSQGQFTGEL

B1: CDAB6 (Fc fusion)
chain: DCGPPPDIPNARPILGRHSKFAEQSKVAYSCNNGFKQVPDKSNIVVCLENGQWSSHETFCEKSCVAPERLSFASLKKEYLNMNFFPVGTIVEYECRPGFRKQPPLPGKATCLEDLVWSPVAQFCKKKSCPNPKDLDNGHINIPTGILFGSEINFSCNPGYRLVGVSSTFCSVTGNTVDWDDEFPVCTEIHCPEPPKINNGIMRGESDSYTYSQVVTYSCDKGFILVGNASIYCTVSKSDVGQWSSPPPRCIEKSKVPTKKPTINVPSTGTPSTPQKPTTESVPNPGDQPTPQKPSTVKVSATQHVPVTKTTVRHPIRTSTDKGEPNTGGGGGSGGGGSGGGGSGGGGSDKTHTCPPCPAPEAAGAPSVFLFPPKPKDTLMISRTPEVTCVVVDVSHEDPEVKFNWYVDGVEVHNAKTKPREEQYNSTYRVVSVLTVLHQDWLNGKEYKCKVSNKALPAPIEKTISKAKGQPREPQVYTLPPSREEMTKNQVSLTCLVKGFYPSDIAVEWESNGQPENNYKTTPPVLDSDGSFFLYSKLTVDKSRWQQGNVFSCSVMHEALHNHYTQKSLSLSPGGGGGSGGGGSGGGGSGGGGSEVQLVQSGAEVKKPGASVKVSCKASGYTFTGYYMHWVRQAPGQGLEWMGWINPKNGDTEFPQKFQGRVTMTRDTSITTAYMDLSRLRSDDTAVYYCARESGDDAFDIWGQGTMVTVSSGGGGGSGGGGSGGGGSDIVMTQSPSSLSASVGDRVTITCRASQSISSYLNWYQQKPGKAPKLLIYAASSLQSGVPSRFSGSGSGTDFTLTISSLQPEDFATYYCQQSVGLFFGGGTKVEIK
notes: Same V domains as CDAB1
As to B1, in assay [1], the Kd – broadly, the concentration at which binding is half-saturated – was determined as 7.13 nM; the off-rate (koff) (in general, the first-order rate constant of dissociation) is 0.00294 s⁻¹; the kon (as a rule, a measure of how fast the partners come together) came out at 412000 M⁻¹ s⁻¹.

B2: CDAB3 (scFv)
chain: DCGPPPDIPNARPILGRHSKFAEQSKVAYSCNNGFKQVPDKSNIVVCLENGQWSSHETFCEKSCVAPERLSFASLKKEYLNMNFFPVGTIVEYECRPGFRKQPPLPGKATCLEDLVWSPVAQFCKKKSCPNPKDLDNGHINIPTGILFGSEINFSCNPGYRLVGVSSTFCSVTGNTVDWDDEFPVCTEIHCPEPPKINNGIMRGESDSYTYSQVVTYSCDKGFILVGNASIYCTVSKSDVGQWSSPPPRCIEKSKVPTKKPTINVPSTGTPSTPQKPTTESVPNPGDQPTPQKPSTVKVSATQHVPVTKTTVRHPIRTSTDKGEPNTGGGGGSGGGGSGGGGSGGGGSEVQLVQSGAEVKKPGASVKVSCKASGYTFTGYYMHWVRQAPGQGLEWMGWINPKNGDTEFPQKFQGRVTMTRDTSITTAYMDLSRLRSDDTAVYYCARESGDDAFDIWGQGTMVTVSSGGGGGSGGGGSGGGGSDIVMTQSPSSLSASVGDRVTITCRASQSISSYLNWYQQKPGKAPKLLIYAASSLQSGVPSRFSGSGSGTDFTLTISSLQPEDFATYYCQQSVGLFFGGGTKVEIKHHHHHH
notes: Fc-less construct with the same V domains as CDAB1; It was loaded on 'anti-Streptavidin' biosensors, and no biotinylation is described
Regarding B2, in assay [2], the Kd is 13.2 nM, the koff came out at 0.00291 s⁻¹ and the on-rate (kon) was 221000 M⁻¹ s⁻¹.

B3: CDAB1 (antibody, human IgG1, kappa)
heavy: EVQLVQSGAEVKKPGASVKVSCKASGYTFTGYYMHWVRQAPGQGLEWMGWINPKNGDTEFPQKFQGRVTMTRDTSITTAYMDLSRLRSDDTAVYYCARESGDDAFDIWGQGTMVTVSSASTKGPSVFPLAPSSKSTSGGTAALGCLVKDYFPEPVTVSWNSGALTSGVHTFPAVLQSSGLYSLSSVVTVPSSSLGTQTYICNVNHKPSNTKVDKKVEPKSCDKTHTCPPCPAPEAAGAPSVFLFPPKPKDTLMISRTPEVTCVVVDVSHEDPEVKFNWYVDGVEVHNAKTKPREEQYNSTYRVVSVLTVLHQDWLNGKEYKCKVSNKALPAPIEKTISKAKGQPREPQVYTLPPSREEMTKNQVSLTCLVKGFYPSDIAVEWESNGQPENNYKTTPPVLDSDGSFFLYSKLTVDKSRWQQGNVFSCSVMHEALHNHYTQKSLSLSPGGGGGSDCGPPPDIPNARPILGRHSKFAEQSKVAYSCNNGFKQVPDKSNIVVCLENGQWSSHETFCEKSCVAPERLSFASLKKEYLNMNFFPVGTIVEYECRPGFRKQPPLPGKATCLEDLVWSPVAQFCKKKSCPNPKDLDNGHINIPTGILFGSEINFSCNPGYRLVGVSSTFCSVTGNTVDWDDEFPVCTEIHCPEPPKINNGIMRGESDSYTYSQVVTYSCDKGFILVGNASIYCTVSKSDVGQWSSPPPRCIEKSKVPTKKPTINVPSTGTPSTPQKPTTESVPNPGDQPTPQKPSTVKVSATQHVPVTKTTVRHPIRTSTDKGEPNTG
light: DIVMTQSPSSLSASVGDRVTITCRASQSISSYLNWYQQKPGKAPKLLIYAASSLQSGVPSRFSGSGSGTDFTLTISSLQPEDFATYYCQQSVGLFFGGGTKVEIKRTVAAPSVFIFPPSDEQLKSGTASVVCLLNNFYPREAKVQWKVDNALQSGNSQESVTEQDSKDSTYSLSSTLTLSKADYEKHKVYACEVTHQGLSSPVTKSFNRGEC
notes: Anti-ROBO2 tether in IgG1 format with mouse CD55 ECD fused to the C-terminus of the heavy chain; also called CDAB1-HC; CDAB1-LC
For the molecule B3, in assay [3], the affinity, expressed as Kd, was 1.38 nM; the off-rate constant (koff) was found to be 0.00129 s⁻¹; the kon was 938000 M⁻¹ s⁻¹. Also, the “tethered IC50(nM), inhibition of C5b-9a deposition (Hycult classical complement mouse assay, tethered format)” value in assay [4] was found to be 1.5 nM.

These data come from patent US20250320292A1 (PANDION OPERATIONS, published 2025).
